43 substances from patent US20240368668A1, “SUBSTRATES AND BIOMARKERS OF ADAMTS7” (The Broad Institute, Inc., priority 2021, published 2024) can be followed below.

Square brackets hold non-standard residues; d marks the D form. Ends that are not written are not given here. Met(O) = CS(=O)CC[C@H](N)C(=O)O

In one test the target is T1, mouse ADAMTS7 (Mus musculus, UniProt Q68SA9).
T1 construct: Full-length mouse Adamts7 1-1857 (Uniprot Q68SA9, WT or E373Q catalytic mutant); expressed in transfected cells; host or cells: Human Coronary Artery Smooth Muscle Cells (HCA-SMC, Lonza), adenovirus 50 MOI
T1 sequence (Q68SA9 221-1657): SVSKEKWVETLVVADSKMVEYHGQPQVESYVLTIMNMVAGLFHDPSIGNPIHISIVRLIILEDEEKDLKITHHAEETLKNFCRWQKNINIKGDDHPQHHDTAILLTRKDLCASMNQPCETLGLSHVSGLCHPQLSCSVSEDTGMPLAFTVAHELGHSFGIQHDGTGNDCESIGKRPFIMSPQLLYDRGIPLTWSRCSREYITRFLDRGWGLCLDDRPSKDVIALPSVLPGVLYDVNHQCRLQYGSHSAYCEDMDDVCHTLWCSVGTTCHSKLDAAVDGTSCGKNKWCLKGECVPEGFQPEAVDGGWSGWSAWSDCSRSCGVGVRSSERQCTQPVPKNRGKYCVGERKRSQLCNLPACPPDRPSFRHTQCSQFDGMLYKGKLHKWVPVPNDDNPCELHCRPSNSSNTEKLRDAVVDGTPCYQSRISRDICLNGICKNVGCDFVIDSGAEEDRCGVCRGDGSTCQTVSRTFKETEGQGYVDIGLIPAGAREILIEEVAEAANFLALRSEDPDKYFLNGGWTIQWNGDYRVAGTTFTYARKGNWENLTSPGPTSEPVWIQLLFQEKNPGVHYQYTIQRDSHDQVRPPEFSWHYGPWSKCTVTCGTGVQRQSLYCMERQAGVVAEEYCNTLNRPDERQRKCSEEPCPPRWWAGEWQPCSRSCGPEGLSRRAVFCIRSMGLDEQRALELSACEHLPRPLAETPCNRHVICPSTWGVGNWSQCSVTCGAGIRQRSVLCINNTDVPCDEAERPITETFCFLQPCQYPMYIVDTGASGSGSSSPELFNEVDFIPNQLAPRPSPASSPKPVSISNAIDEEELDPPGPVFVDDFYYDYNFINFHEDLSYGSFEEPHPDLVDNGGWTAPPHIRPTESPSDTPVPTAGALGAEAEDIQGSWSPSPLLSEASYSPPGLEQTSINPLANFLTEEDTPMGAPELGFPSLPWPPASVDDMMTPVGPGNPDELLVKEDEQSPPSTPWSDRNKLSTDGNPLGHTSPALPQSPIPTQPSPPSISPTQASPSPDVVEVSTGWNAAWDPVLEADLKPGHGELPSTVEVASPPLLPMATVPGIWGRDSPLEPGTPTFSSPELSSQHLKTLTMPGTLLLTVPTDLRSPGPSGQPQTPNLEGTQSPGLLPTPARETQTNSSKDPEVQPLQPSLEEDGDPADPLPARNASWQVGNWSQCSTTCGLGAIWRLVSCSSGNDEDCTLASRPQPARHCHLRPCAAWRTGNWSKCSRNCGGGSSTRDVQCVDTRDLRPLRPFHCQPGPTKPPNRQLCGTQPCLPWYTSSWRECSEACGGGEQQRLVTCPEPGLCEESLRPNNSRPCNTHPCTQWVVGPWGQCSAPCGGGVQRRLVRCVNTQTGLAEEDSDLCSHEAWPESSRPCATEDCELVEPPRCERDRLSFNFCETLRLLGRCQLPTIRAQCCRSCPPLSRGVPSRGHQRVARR
Description: TMT10 TAILS N-terminomics, SMC2 experiment (process replicates, trypsin/AspN digest). The conditions noted are these: SMC2_TAILS HC; log fold change of N-terminal peptide, Ad-mADAMTS7 WT over Luc. Type of test: cell-based. Summed up:
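Full-length mouse ADAMTS7 (WT or E373Q mutant, C-terminal 3xFLAG) or luciferase was transduced via adenovirus, 50 MOI, into HCA-SMC (SMC1, SMC2) or HUVEC. SMC1: pooled media, technical triplicates 400 ug; SMC2: process triplicates 300 ug; HUVEC: process triplicates 200 ug, bFGF2 10 ng/ml.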
Substance “LOXL1_218 (AVASAGVIYPYQPR; listed as Homo sapiens)” had a logFC.mWT.over.Luc of 1.72.
On to “LOXL2_45 (HQPQAPANVAKIQLR; listed as Homo sapiens)”, for which the logFC.mWT.over.Luc turned out to be 2.62.
As for “LTBP2_79 (VAGLQPVER; listed as Homo sapiens)”, the logFC.mWT.over.Luc is 1.54.
As for “LTBP2_250 (SAAGEGTLAR; listed as Homo sapiens)”, the logFC.mWT.over.Luc came to 2.49.
The same measure, in the same setting: with “LTBP2_290 (QHVGLSR; listed as Homo sapiens)” the figure was 2.94; with “LTBP2_502 (LVENSVETRPPPWLPASPGHSLW; listed as Homo sapiens)”, 2.66.
Regarding “LTBP3_103 (LTGSGFR; listed as Homo sapiens)”, the logFC.mWT.over.Luc is given as 4.80.
Same read-out and setting: with “LTBP3_208 (FLVPLGPGQISA; listed as Homo sapiens)” the figure was 1.51; with “MAP4_815 (AVASTGPSSR; listed as Homo sapiens)”, 1.68; with “MAP4_816 (VASTGPSSR; listed as Homo sapiens)”, 2.53.
“MMP1_100 (FVLTEGNPR; listed as Homo sapiens)” had a logFC.mWT.over.Luc of 2.35.
On to “MMP1_185 (FQPGPGIGG; listed as Homo sapiens)”, for which the logFC.mWT.over.Luc stood at 1.08.
The same measure, in the same setting: with “NBEA_1892 (LEKVAPLLR; listed as Homo sapiens)” the figure was 2.04; with “NID1_360 (FHQQHPQVI; listed as Homo sapiens)”, 2.47; with “NID2_291 (HSSVPLGR; listed as Homo sapiens)”, 3.16.
On the same count and under the same terms, under “NID2_951 (YAYPGAR; listed as Homo sapiens)” stands 2.73; under “PAK4_141 (HSEAGGGSG; listed as Homo sapiens)”, 2.47; under “PLIN3_75 (VSGAQPILSKL; listed as Homo sapiens)”, 2.32.
“POSTN_727 (IITGPEIKYTR; listed as Homo sapiens)” returned a logFC.mWT.over.Luc of 2.51.
On the same count and under the same terms, under “PPP1R18_295 (LSETLTR; listed as Homo sapiens)” stands 2.35.
Still for that read-out and setting: under “PTPRF_1859 (MRYEGVVDMFQTVKTLR; listed as Homo sapiens)” stands 2.51.
Still for that read-out and setting: with “QSOX1_210 (HKGVAVR; listed as Homo sapiens)” the figure was 1.20.
Substance “SHC2_267 (VAKDPINQRACHIL; listed as Homo sapiens)” displayed a logFC.mWT.over.Luc of 1.89.
Still for that read-out and setting: with “SPOCK1_27 (LAGGAGPNHGNFL; listed as Homo sapiens)” the figure was 2.03; with “SRGN_59 (LLPGESNKIPR; listed as Homo sapiens)”, 3.71.
Still for that read-out and setting: with “TNPO2_744 (VQ[Met(O)]VLNNLVEII[code n]RP[code n]TPKTLLE; listed as Homo sapiens)” the figure was 4.08; with “TNS1_236 (QEGLAGYQR; listed as Homo sapiens)”, 1.49; with “TRGC2_86 (HRCIVRHENNK; listed as Homo sapiens)”, 3.16.
Still for that read-out and setting: with “TTN_5975 (VKEPPVEFTKPL; listed as Homo sapiens)” the figure was 3.15; with “VAT1_42 (AASPPLLR; listed as Homo sapiens)”, 3.22.
“VIM_314 (QESTEYR; listed as Homo sapiens)”: the logFC.mWT.over.Luc worked out at 3.06.
On the same count and under the same terms, with “VIM_333 (LKGTNESLER; listed as Homo sapiens)” the figure was 3.75.

The test is the same for the next values; noted with them: SMC2_TAILS HC; log fold change, mWT over Luc.
“COL1A2_80 (QYDGKGVGLGPGPMGLMGPR; listed as Homo sapiens)” showed a logFC.mWT.over.Luc of 0.82.
On the same count and under the same terms, under “COL1A2_270 (VGNAGPAGPAGPR; listed as Homo sapiens)” stands 3.42; under “COL1A2_305 (LTGAKGAAGLPGVAGAPGLPGPR; listed as Homo sapiens)”, 1.60; under “COL1A2_630 (VGTAGPSGPSGLPGER; listed as Homo sapiens)”, 2.03.
“COL1A2_866 (LLGAPGILGLPGSR; listed as Homo sapiens)” returned a logFC.mWT.over.Luc of 2.76.
“COL1A2_960 (AGAPGPHGPVGPAGKHGNR; listed as Homo sapiens)” had a logFC.mWT.over.Luc of 2.71.
The same measure, in the same setting: with “COL1A2_1028 (LQGLPGIAGHHGDQGAPGSVGPAGPR; listed as Homo sapiens)” the figure was 1.73; with “COL4A2_71 (YNGPPGLQGFPGLQGR; listed as Homo sapiens)”, 1.38.
Still for that read-out and setting: under “COL18A1_1505 (LQPPVVQLHDSNPYPR; listed as Homo sapiens)” stands 1.46.

Staying with this test, now noted: log fold change, ADAMTS7 WT over luciferase.
In the case of “SERBP1_56 (QAAAQTNSNAAGKQLR; listed as Homo sapiens)”, the logFC.mWT.over.Lux is listed as 3.97.
Substance “SRGN_59 (LLPGESNKIPR; listed as Homo sapiens)” displayed a logFC.mWT.over.Lux of 4.23.
Same read-out and setting: with “THBS2_290 (LSENLKR; listed as Homo sapiens)” the figure was 4.65; with “VIM_314 (QESTEYR; listed as Homo sapiens)”, 2.63; with “VIM_333 (LKGTNESLER; listed as Homo sapiens)”, 4.37.
